# Measured values: the supplement of paper PMC11865577
# Assays:
# Assay in all cases: pull-down binding Z-score (relative to library population); higher = stronger binding
# [1] = tested on: TO-N3-2 (biotin conjugate); details: RNA library: Library-2
# Outline: (§1)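 A heat-folded, dye-end-labelled (Cy5 or Cy3) RNA library (1 μg, phosphate/NaCl/KCl buffer) was exposed for 60 min at 25 °C to streptavidin beads holding 100 pmol of biotin-conjugated small molecule. RNA retained on the beads was eluted in hot SDS and hybridised to a DNA barcode microarray for 20 h at 55.5 °C. Binding scores were Z-scores against the library mean and standard deviation, calculated after subtracting beads alone and taking trimmed means of replicate probes.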
# [2] = tested on: G-clamp-N3 (biotin conjugate); details: RNA library: Library-1 (pre-miRNA loops + repeats)
# Outline: as §1
# [3] = tested on: TO-3-N3-2 (biotin conjugate); details: RNA library: Library-2
# Outline: as §1
# TO-N3 (biotin conjugate) = details: RNA library: Library-2
# Outline: as §1
# [4] = tested on: TO-3-N3 (biotin conjugate); details: RNA library: Library-2
# Outline: as §1
Sequence,pull-down binding Z-score [1],pull-down binding Z-score [2],pull-down binding Z-score [3],pull-down binding Z-score (TO-N3 (biotin conjugate)),pull-down binding Z-score [4]
CCACGGGCUGGGCACAGUGG [hsa-mir-3159],0.891,1.07,0.391,1.18,1.04
UGAGCAUUCUAGCAGCAGUUUGAUGAUCA [hsa-mir-6516],-0.196,-0.0961,-0.419,-0.394,-0.57
CUUAGAUUUUUCCAUCUUUGUAUCUAG [hsa-mir-29b-2],-0.98,0.453,-0.236,-0.995,-0.805
UACAUAGUUCAUGCUGAGGCCGGGAUUUCAUGCAGAAAACUGGUUGCAAAAGGUGCUGAAG [hsa-mir-6085],1.13,-0.725,0.378,0.573,-0.189
UGGAGGAGUCUGGUGGCCUGUUCUCUU [hsa-mir-6754],0.707,-0.0952,-0.0949,0.123,-0.348
UUCUUCCUGGAGUCGGGGAAAAG [hsa-mir-320e],0.278,1.31,-0.0301,0.516,0.308
CAGAGGGAGGCCAAGAAGACCUCUG [hsa-mir-4793],0.354,2.73,-0.445,-0.402,-0.656
AGGGCCUUCUGAGCCCAGGUCCG [hsa-mir-6716],1.46,0.286,0.018,0.886,0.611
UGGGCAGUUCUUCUGCUGG [hsa-mir-1587],0.377,0.403,0.0756,0.149,0.21
CCUGCCCAAAUGGUGGAGCAGAUUCGAGGGGCAGG [hsa-mir-4436b-2_4436b-1],-0.125,2.51,0.0731,-0.282,-0.218
CCCACGUCGCAUGCGCCCCGGGAAAGCGUGGG [hsa-mir-3180-1_3180-3_3180-2],0.515,1.94,-0.158,0.682,0.614
CCUUCUGCUUACAGGUAUUGGAAGG [hsa-mir-3158-1],-0.685,0.832,-0.401,-0.371,-0.281
GGCUGUGGCCUAGGGCAAGCCACAAAGCC [hsa-mir-4642],0.939,0.507,0.245,0.183,0.0577
GACAUCCCUCAUCUGUUUCUCACUGGUGUC [hsa-mir-6830],-0.507,-0.521,0.244,-0.0985,0.191
GAUCCGGGAACCCACAGCCCCGUUC [hsa-mir-6783],1.08,0.0468,0.149,0.886,0.496
CCCAUAUGGACCUGCUAAGCUAUGGA [hsa-mir-1-1],0.361,-0.475,-0.0364,0.289,-0.0116
GGGACGUGUGAUGCUGUGCUUCCU [hsa-mir-3689f],0.502,-0.338,-0.0333,-0.185,-0.469
GGAGAGUAUGGUCACAGCAGCAUCCUCC [hsa-mir-6780a],0.36,0.186,-0.326,-0.0981,-0.0714
CAUGAUUUGGAAAAAUUACUG [hsa-mir-6128],-0.315,-0.888,-0.0805,-0.151,-0.174
UGUCUUUUUUUUUUUCUGAGACA [hsa-mir-1273c],-1.36,-0.128,0.127,-1.21,-0.718
AUAUAAGGGAAGGCAUUAUAG [hsa-mir-3117],-0.234,0.00615,0.0974,0.0219,0.00808
UUGGGAUCCACCUUUCUCUCGA [hsa-mir-196b],-0.031,-0.507,0.21,0.471,0.578
CGGUACCCACUGCUGAGGGUGGGGACCA [hsa-mir-3691],0.687,-0.0994,-0.291,0.55,0.628
CGGAAUUCUCCAGAGCCUCUG [hsa-mir-6889],0.584,-0.773,0.0162,0.453,0.188
GACGAUUUGAAUUAAUAAAUUC [hsa-mir-579],-0.419,0.799,0.0871,0.153,0.329

Sequence,pull-down binding Z-score [1],pull-down binding Z-score [2],pull-down binding Z-score [3],pull-down binding Z-score (TO-N3 (biotin conjugate)),pull-down binding Z-score [4]
AGGGUGGAGCCCACUGUGGCUCCUGACUCAGCCCU [hsa-mir-6893],0.419,-0.967,0.0411,-0.0778,-0.0543
ACAAUAUGCUAUUAUAAUCGUAUGGCAUUGU [hsa-mir-2355],-0.994,0.228,-0.546,-1.18,-0.919
UGGGUAGGAAUAUCCUGGAUCCCCU [hsa-mir-3189],0.501,-0.575,0.312,0.102,-0.0266
UUAUUCAGAGAGGCUAGAUCCUCUGUGUUGAGAAGGAUCA [hsa-mir-433],-0.0231,0.503,0.23,-0.151,-0.385
GUCUGUUUUCUUCAUGGUUUUCUGAC [hsa-mir-6759],-0.557,0.125,-0.481,-0.999,-0.779
CCCGUAGGACACCGAGGCUUAUGAAUAGGA [hsa-mir-6081],0.62,-0.941,0.141,0.345,-0.16
UAUUUCAAAAGACUAGAGGUAGGAAAUGAG [hsa-mir-3975],-0.211,2.94,0.381,-0.42,-0.57
AUCGGUCGAGAGCGUCCUGGCUGAU [hsa-mir-3178],1,0.173,-0.22,0.526,0.18
CAUUGUAAUAGUUCAUAUGGGCACUG [hsa-mir-3660],0.0148,2.34,-0.109,0.0211,-0.0141
UGGCUUGCACCGUGACUCCCUCUCACCAAGCAAGUGUC [hsa-mir-4440],0.607,-0.837,0.0231,0.0846,-0.387
GGGCAUUCCGGAUAGGCCGAGAAAGUGUUG [hsa-mir-6723],1.42,0.79,0.568,1.67,1.45
GGGGCUCUU [hsa-mir-4634],0.21,-0.697,0.0655,0.365,0.0873
GAGCUCAGGAGCUC [hsa-mir-8052],-0.448,0.271,-0.529,-0.9,-0.634
GUUGCAUGUUGUCACGGCCUCAAUGCAAU [hsa-mir-32],0.552,-1.33,-0.202,0.0815,-0.164
GAUCCAGCCCAGGCUGGUUCCGCUGAC [hsa-mir-4522],1.51,-0.211,0.351,1.23,1.15
GCAUCCAGACAGCGGGCGAAUGC [hsa-mir-6836],1.13,0.0557,-0.113,0.33,-0.0821
AGUCACUUAGAUUACAUGUCACU [hsa-mir-892c],-0.486,-1.24,0.0543,-0.172,0.00628
UUUCUGUUGUCUGAAAGCAGA [hsa-mir-515-1_515-2],-0.0707,-0.445,0.223,0.262,0.216
CCCGAGGCCCUUCAUGCUGCCCAGCUCGGG [hsa-mir-486-1],1.19,0.819,0.923,0.727,0.473
CUGAGAGGUUUACAUUUCUC [hsa-mir-128-1],-0.0343,-1.07,-0.672,-0.648,-0.664
AGCAGUACCAGACGGUUCUGUGG [hsa-mir-3198-1],0.525,-0.487,-0.0913,0.0664,-0.321
AGUUAGAAUUCUUAAGUAUCAAAACUAAAU [hsa-mir-4760],-0.12,-1.22,0.252,0.106,0.216
CGGGCUGAUUGCGCUAACAGUGGCCCC [hsa-mir-4783],1.12,-0.491,-0.117,0.248,-0.256
CACCUCCCGGCCCGGAGCUG [hsa-mir-4734],0.527,0.0744,-0.473,-0.0704,-0.243
CCAAGGCUCUGGGGUCUCACCCUUGG [hsa-mir-6842],0.0499,0.754,-0.394,0.386,0.484

Sequence,pull-down binding Z-score [1],pull-down binding Z-score [2],pull-down binding Z-score [3],pull-down binding Z-score (TO-N3 (biotin conjugate)),pull-down binding Z-score [4]
AGGGCAGGGGUGUGGCU [hsa-mir-4751],1.93,0.725,2.67,2.8,3.21
AGCCUUCUAUUAUGCCCAGACAGGGCCACCAGAGGGCU [hsa-mir-4448],-0.254,-0.731,-0.619,-0.746,-0.471
ACAGCGCCACGGAAGAGGACGCA [hsa-mir-941-4_941-5_941-2_941-3_941-1],0.874,-0.758,-0.211,0.495,0.0968
UUUGUGGGGCGAGGAGGGACCUGUACUAGCCAUGGUUCUGAUCACAUAUG [hsa-mir-6834],2.89,0.432,2.72,3.83,3.06
GUGAUUACAUUAAAACUUAAAAUUUCAC [hsa-mir-4719],-0.663,-1.01,-0.244,-0.105,-0.0289
CACUGCAGUUACCCUCCCCUCGGCGUUACUGAGCACUG [hsa-mir-637],0.948,-0.893,0.224,0.603,0.22
AUGGCAUUUAAGGAUUGCUAU [hsa-mir-4477a],-0.675,0.671,-0.473,-0.893,-0.716
GCUGCCAUCUCCCACUGGCUGC [hsa-mir-4736],0.0852,-0.492,-0.495,-0.536,-0.569
UGCUGGAGAAGUGUUU [hsa-mir-557],0.156,-0.431,0.0975,0.49,0.516
GGUGGGUGGGAAGUAAGAUCUGACCUGGACUCCAUCCCACCCACC [hsa-mir-4640],4.38,0.122,4.64,5.35,4.87
GGCCGUUUGAGAUGUCC [hsa-mir-3674],0.0919,-0.962,-0.132,-0.259,-0.181
GACUGGACAACAUGAUGAGCCCAAACCAAUC [hsa-mir-5092],0.433,-1.85,0.166,0.0433,-0.245
UUGUGUGGUAUCCGUAUAGUCACAG [hsa-mir-10b],-0.0857,-0.0547,-0.634,-0.277,-0.416
GAGACACCCGCUACCUGGUGUU [hsa-mir-4321],0.471,-0.619,-0.213,-0.0464,-0.271
UCUGUUGCUUGAAAGAAGAGA [hsa-mir-526a-1],0.215,1.67,-0.154,0.922,0.85
CUUUCUGUUGUCUAAAAGAAAAGAAAG [hsa-mir-520d],-0.127,0.0447,-0.331,-0.415,-0.444
UAAUAACUGACAAACAGACAAUUG [hsa-mir-4774],-0.303,-0.873,-0.145,-0.376,-0.343
AGUCCAAAGGAAAGGGCU [hsa-mir-8077],-0.0277,-0.578,0.232,0.822,0.999
UGGUGGAGAUGGAGAGCCCUGAGCCUCCA [hsa-mir-6777],1.17,0.173,-0.0154,0.727,0.164
AGAGAUGAGCAUAAAGUUUUU [hsa-mir-6086],-0.389,-1.36,-0.12,-0.104,0.0616
CUUGGGCCCAUUCCUUUCCUUACCCUAC [hsa-mir-6798],0.758,-1.1,0.218,0.541,0.268
GUGUUUUCUCCUUUAGAGAGAGCUG [hsa-mir-4299],0.309,0.765,-0.23,-0.257,-0.542
CCGGGCGCUGCUCUGACCCCUCGU [hsa-mir-187],1.39,0.00395,0.116,0.875,0.166
CGCUGCUGGCUGCCUUCCAGCG [hsa-mir-4533],0.26,0.074,-0.568,0.079,0.221
